In patent publication US20250218531A1 (ABSCI, published 2025):
Read-outs that look alike come from different tables or passages of the source.

Columns and labels:
[1] = target: human epidermal growth factor receptor 2 (HER2) extracellular domain (human, UniProt P04626 23-629); assay: SPR, Fab format
[2] = target: T1, human epidermal growth factor receptor 2 (HER2) extracellular domain (human, UniProt P04626 23-629); assay: SPR (Carterra LSA), Fab captured, HER2 ECD as analyte
[3] = target: T1, human epidermal growth factor receptor …; assay: SPR
[4] = target: T1, human epidermal growth factor receptor …; assay: SPR, table row 1
[5] = target: T1, human epidermal growth factor receptor …
[6] = target: T1, human epidermal growth factor receptor …; assay: SPR, table row 3
[7] = target: T1, human epidermal growth factor receptor …; assay: SPR, table row 2

Row | Binder | Kd [1] [nM] | log(KD (M)) [1] [log M] | Kd [3] [nM] | further results
1 | De novo trastuzumab HCDR3 variant ARYAGVERPGSFAY (SEQ ID NO: 43) (Fab, V domains shown) VH: EVQLVESGGGLVQPGGSLRLSCAASGFNIKDTYIHWVRQAPGKGLEWVARIYPTNGYTRYADSVKGRFTISADTSKNTAYLQMNSLRAEDTAVYYCARYAGVERPGSFAYWGQGTLVTVSS VL: not shown | 574 | -6.24 | – | –
2 | De novo trastuzumab HCDR3 variant ARYAGVERPGSFAY (Fab, V domains shown, Fab format) VH: EVQLVESGGGLVQPGGSLRLSCAASGFNIKDTYIHWVRQAPGKGLEWVARIYPTNGYTRYADSVKGRFTISADTSKNTAYLQMNSLRAEDTAVYYCARYAGVERPGSFAYWGQGTLVTVSS VL: not shown | – | – | – | log10(KD) [2]: -6.24 log10(M)
3 | De novo trastuzumab HCDR3 variant ANDIYIQGYDLNR (Fab, V domains shown, Fab format) VH: EVQLVESGGGLVQPGGSLRLSCAASGFNIKDTYIHWVRQAPGKGLEWVARIYPTNGYTRYADSVKGRFTISADTSKNTAYLQMNSLRAEDTAVYYCANDIYIQGYDLNRWGQGTLVTVSS VL: not shown | – | – | – | log10(KD) [2]: -8.4 log10(M)
4 | De novo trastuzumab HCDR3 variant ARTGWGYDNISGYEY (SEQ ID NO: 497) (Fab, V domains shown) VH: EVQLVESGGGLVQPGGSLRLSCAASGFNIKDTYIHWVRQAPGKGLEWVARIYPTNGYTRYADSVKGRFTISADTSKNTAYLQMNSLRAEDTAVYYCARTGWGYDNISGYEYWGQGTLVTVSS VL: not shown | 1460 | -5.84 | – | –
5 | De novo trastuzumab HCDR3 variant ARLYYSSFNGM (SEQ ID NO: 485) (Fab, V domains shown) VH: EVQLVESGGGLVQPGGSLRLSCAASGFNIKDTYIHWVRQAPGKGLEWVARIYPTNGYTRYADSVKGRFTISADTSKNTAYLQMNSLRAEDTAVYYCARLYYSSFNGMWGQGTLVTVSS VL: not shown | 339 | -6.47 | – | –
6 | De novo trastuzumab HCDR3 variant TRRDFGYYMAY (SEQ ID NO: 494) (Fab, V domains shown) VH: EVQLVESGGGLVQPGGSLRLSCAASGFNIKDTYIHWVRQAPGKGLEWVARIYPTNGYTRYADSVKGRFTISADTSKNTAYLQMNSLRAEDTAVYYCTRRDFGYYMAYWGQGTLVTVSS VL: not shown | 547 | -6.26 | – | –
7 | De novo trastuzumab HCDR3 variant AVEGGTRALEP (SEQ ID NO: 483) (Fab, V domains shown) VH: EVQLVESGGGLVQPGGSLRLSCAASGFNIKDTYIHWVRQAPGKGLEWVARIYPTNGYTRYADSVKGRFTISADTSKNTAYLQMNSLRAEDTAVYYCAVEGGTRALEPWGQGTLVTVSS VL: not shown | 326 | -6.49 | – | –
8 | AI Design 7 (multi-step AI designed trastuzumab variant, native HCDR1) (Fab, V domains shown, Fab format; also called GFNIKDTY / IDPANGYT / ARVGGRGYYYYDY) VH: EVQLVESGGGLVQPGGSLRLSCAASGFNIKDTYIHWVRQAPGKGLEWVARIDPANGYTRYADSVKGRFTISADTSKNTAYLQMNSLRAEDTAVYYCARVGGRGYYYYDYWGQGTLVTVSS VL: not shown | – | – | 134 | –
9 | De novo trastuzumab HCDR3 variant TRYFFNGWYYFDV (Fab, V domains shown, Fab format) VH: EVQLVESGGGLVQPGGSLRLSCAASGFNIKDTYIHWVRQAPGKGLEWVARIYPTNGYTRYADSVKGRFTISADTSKNTAYLQMNSLRAEDTAVYYCTRYFFNGWYYFDVWGQGTLVTVSS VL: not shown | – | – | – | log10(KD) [2]: -9.03 log10(M)
10 | AI Design 6 (multi-step AI designed trastuzumab variant, native HCDR1) (Fab, V domains shown, Fab format; also called GFNIKDTY / IDPADGYT / AREGGYGYYAMDY) VH: EVQLVESGGGLVQPGGSLRLSCAASGFNIKDTYIHWVRQAPGKGLEWVARIDPADGYTRYADSVKGRFTISADTSKNTAYLQMNSLRAEDTAVYYCAREGGYGYYAMDYWGQGTLVTVSS VL: not shown | – | – | 160 | –
11 | AI Design 4 (multi-step AI designed trastuzumab HCDR1/2/3 variant) (Fab, V domains shown, Fab format; also called GFNIKDTW / IDPANGYT / ARVGGRGYYYYDY) VH: EVQLVESGGGLVQPGGSLRLSCAASGFNIKDTWIHWVRQAPGKGLEWVARIDPANGYTRYADSVKGRFTISADTSKNTAYLQMNSLRAEDTAVYYCARVGGRGYYYYDYWGQGTLVTVSS VL: not shown | – | – | 394 | –
12 | AI Design 9 (multi-step AI designed trastuzumab variant, native HCDR1 and HCDR2) (Fab, V domains shown, Fab format; also called GFNIKDTY / IYPTNGYT / ARYYGSSSYYFAY) VH: EVQLVESGGGLVQPGGSLRLSCAASGFNIKDTYIHWVRQAPGKGLEWVARIYPTNGYTRYADSVKGRFTISADTSKNTAYLQMNSLRAEDTAVYYCARYYGSSSYYFAYWGQGTLVTVSS VL: not shown | – | – | 60.6 | –
13 | AI Design 3 (multi-step AI designed trastuzumab HCDR1/2/3 variant) (Fab, V domains shown, Fab format; also called GFNIKDYY / IYPSRGYT / ARHGSEGRYTMDV) VH: EVQLVESGGGLVQPGGSLRLSCAASGFNIKDYYIHWVRQAPGKGLEWVARIYPSRGYTRYADSVKGRFTISADTSKNTAYLQMNSLRAEDTAVYYCARHGSEGRYTMDVWGQGTLVTVSS VL: not shown | – | – | 192 | –
14 | AI Design 8 (multi-step AI designed trastuzumab variant, native HCDR1) (Fab, V domains shown, Fab format; also called GFNIKDTY / IYPSNGYT / ARYGGSYAYYFYY) VH: EVQLVESGGGLVQPGGSLRLSCAASGFNIKDTYIHWVRQAPGKGLEWVARIYPSNGYTRYADSVKGRFTISADTSKNTAYLQMNSLRAEDTAVYYCARYGGSYAYYFYYWGQGTLVTVSS VL: not shown | – | – | 18.6 | –
15 | AI Design 5 (multi-step AI designed trastuzumab HCDR1/2/3 variant) (Fab, V domains shown, Fab format; also called GFNFKDTY / IYPANGYT / ASDGGSYSYAFDY) VH: EVQLVESGGGLVQPGGSLRLSCAASGFNFKDTYIHWVRQAPGKGLEWVARIYPANGYTRYADSVKGRFTISADTSKNTAYLQMNSLRAEDTAVYYCASDGGSYSYAFDYWGQGTLVTVSS VL: not shown | – | – | 642 | –
16 | AI Design 2 (multi-step AI designed trastuzumab HCDR1/2/3 variant) (Fab, V domains shown, Fab format; also called GFNISDYY / IYPSSGYT / ARDGGVGSYSMDV) VH: EVQLVESGGGLVQPGGSLRLSCAASGFNISDYYIHWVRQAPGKGLEWVARIYPSSGYTRYADSVKGRFTISADTSKNTAYLQMNSLRAEDTAVYYCARDGGVGSYSMDVWGQGTLVTVSS VL: not shown | – | – | 1320 | –
17 | De novo trastuzumab HCDR3 variant VRSGYDYYSWFAY (SEQ ID NO: 492) (Fab, V domains shown) VH: EVQLVESGGGLVQPGGSLRLSCAASGFNIKDTYIHWVRQAPGKGLEWVARIYPTNGYTRYADSVKGRFTISADTSKNTAYLQMNSLRAEDTAVYYCVRSGYDYYSWFAYWGQGTLVTVSS VL: not shown | 465 | -6.33 | – | –
18 | AI Design 1 (multi-step AI designed trastuzumab HCDR1/2/3 variant) (Fab, V domains shown, Fab format; also called GFNVSSSY / IYPENGST / SRYSYYGGYAFDY) VH: EVQLVESGGGLVQPGGSLRLSCAASGFNVSSSYIHWVRQAPGKGLEWVARIYPENGSTRYADSVKGRFTISADTSKNTAYLQMNSLRAEDTAVYYCSRYSYYGGYAFDYWGQGTLVTVSS VL: not shown | – | – | 225 | –
19 | De novo trastuzumab HCDR3 variant ARYDYGYYIYVS (Fab, V domains shown, Fab format) VH: EVQLVESGGGLVQPGGSLRLSCAASGFNIKDTYIHWVRQAPGKGLEWVARIYPTNGYTRYADSVKGRFTISADTSKNTAYLQMNSLRAEDTAVYYCARYDYGYYIYVSWGQGTLVTVSS VL: not shown | – | – | – | log10(KD) [2]: -8.02 log10(M)
20 | De novo trastuzumab HCDR3 variant ARYYGWYYYFDY (SEQ ID NO: 482) (Fab, V domains shown) VH: EVQLVESGGGLVQPGGSLRLSCAASGFNIKDTYIHWVRQAPGKGLEWVARIYPTNGYTRYADSVKGRFTISADTSKNTAYLQMNSLRAEDTAVYYCARYYGWYYYFDYWGQGTLVTVSS VL: not shown | 323 | -6.49 | – | –
21 | De novo trastuzumab HCDR3 variant ARYYYGFYYFDY (Fab, V domains shown, Fab format) VH: EVQLVESGGGLVQPGGSLRLSCAASGFNIKDTYIHWVRQAPGKGLEWVARIYPTNGYTRYADSVKGRFTISADTSKNTAYLQMNSLRAEDTAVYYCARYYYGFYYFDYWGQGTLVTVSS VL: not shown | – | – | – | log10(KD) [2]: -8.92 log10(M)
22 | Trast_Her2_49 (Fab, V domains shown, also called HCDR3 AKGTSSWYNFGV) VH: EVQLVESGGGLVQPGGSLRLSCAASGFNIKDTYIHWVRQAPGKGLEWVARIYPTNGYTRYADSVKGRFTISADTSKNTAYLQMNSLRAEDTAVYYCAKGTSSWYNFGVWGQGTLVTVSS VL: not shown | – | – | – | Kd [4]: ≤ 0.517 nM; koff [4]: ≤ 1e-05 s⁻¹; kon [4]: 19300 M⁻¹ s⁻¹
23 | De novo trastuzumab HCDR3 variant ARGYGVGASFVY (SEQ ID NO: 496) (Fab, V domains shown) VH: EVQLVESGGGLVQPGGSLRLSCAASGFNIKDTYIHWVRQAPGKGLEWVARIYPTNGYTRYADSVKGRFTISADTSKNTAYLQMNSLRAEDTAVYYCARGYGVGASFVYWGQGTLVTVSS VL: not shown | 630 | -6.2 | – | –
24 | De novo trastuzumab HCDR3 variant ASDRYGSYSLVS (SEQ ID NO: 480) (Fab, V domains shown) VH: EVQLVESGGGLVQPGGSLRLSCAASGFNIKDTYIHWVRQAPGKGLEWVARIYPTNGYTRYADSVKGRFTISADTSKNTAYLQMNSLRAEDTAVYYCASDRYGSYSLVSWGQGTLVTVSS VL: not shown | 314 | -6.5 | – | –
25 | Trast_Her2_52 (Fab, V domains shown, also called HCDR3 AKISRYYYGMDY) VH: EVQLVESGGGLVQPGGSLRLSCAASGFNIKDTYIHWVRQAPGKGLEWVARIYPTNGYTRYADSVKGRFTISADTSKNTAYLQMNSLRAEDTAVYYCAKISRYYYGMDYWGQGTLVTVSS VL: not shown | – | – | – | Kd [5]: 9.01 nM; koff [5]: 0.000127 s⁻¹; kon [5]: 14100 M⁻¹ s⁻¹; Kd [6]: 0.929 nM; koff [6]: 1e-05 s⁻¹; kon [6]: 10800 M⁻¹ s⁻¹
26 | De novo trastuzumab HCDR3 variant ARYHYSGFFMDA (SEQ ID NO: 489) (Fab, V domains shown) VH: EVQLVESGGGLVQPGGSLRLSCAASGFNIKDTYIHWVRQAPGKGLEWVARIYPTNGYTRYADSVKGRFTISADTSKNTAYLQMNSLRAEDTAVYYCARYHYSGFFMDAWGQGTLVTVSS VL: not shown | 433 | -6.36 | – | –
27 | Trast_Her2_12 (Fab, V domains shown, also called HCDR3 AGHWTYRFADTL) VH: EVQLVESGGGLVQPGGSLRLSCAASGFNIKDTYIHWVRQAPGKGLEWVARIYPTNGYTRYADSVKGRFTISADTSKNTAYLQMNSLRAEDTAVYYCAGHWTYRFADTLWGQGTLVTVSS VL: not shown | – | – | – | Kd [7]: ≤ 0.792 nM; koff [7]: ≤ 1e-05 s⁻¹; kon [7]: 12600 M⁻¹ s⁻¹
28 | De novo trastuzumab HCDR3 variant ARYLSDSYAWDY (SEQ ID NO: 490) (Fab, V domains shown) VH: EVQLVESGGGLVQPGGSLRLSCAASGFNIKDTYIHWVRQAPGKGLEWVARIYPTNGYTRYADSVKGRFTISADTSKNTAYLQMNSLRAEDTAVYYCARYLSDSYAWDYWGQGTLVTVSS VL: not shown | 434 | -6.36 | – | –
